Read-outs that look alike come from different tables or passages of the source.
Legend:
Assay in all cases: ITC
TRBP2-dsRBD1 [1] = target: T1, TRBP2-dsRBD1 (UniProt Q15633 1-105)
T1 sequence: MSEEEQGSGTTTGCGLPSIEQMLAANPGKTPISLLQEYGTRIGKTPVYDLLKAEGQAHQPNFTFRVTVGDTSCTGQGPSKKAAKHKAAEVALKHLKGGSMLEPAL

dADAR-dsRBD1 [2] = target: T2, dADAR-dsRBD1 (UniProt Q9NII1 48-140)
T2 sequence: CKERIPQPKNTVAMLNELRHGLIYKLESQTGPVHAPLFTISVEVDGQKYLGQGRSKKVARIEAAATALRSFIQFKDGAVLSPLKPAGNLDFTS

dADAR-dsRBD1 [3] = target: T2, dADAR-dsRBD1; remark: listed apart in the source
TRBP2-dsRBD1 [4] = target: T1, TRBP2-dsRBD1; remark: listed apart in the source
TRBP2-dsRBD1 [5] = target: T1, TRBP2-dsRBD1; remark: listed apart in the source
dADAR-dsRBD1 [6] = target: T2, dADAR-dsRBD1; remark: listed apart in the source
TRBP2-dsRBD1 [7] = target: T1, TRBP2-dsRBD1; remark: listed apart in the source
dADAR-dsRBD1 [8] = target: T2, dADAR-dsRBD1; remark: listed apart in the source
TRBP2-dsRBD1 [9] = target: T1, TRBP2-dsRBD1; remark: listed apart in the source
dADAR-dsRBD1 [10] = target: T2, dADAR-dsRBD1; remark: listed apart in the source

B1: D10RNA (dsRNA)
RNA 1: UUAUAAAUGC
RNA 2: GCAUUUAUGA
Q: Which results are given for B1?
A: Kd (TRBP2-dsRBD1 [1]): 2.21 ± 0.51 µM; Kd (dADAR-dsRBD1 [2]): 0.21 ± 0.1 µM

B2: miR-16-1-B (dsRNA)
RNA 1: UAGCAGCACGUAAAUAUUGGCG
RNA 2: CCAGUAUUUACUGUGCUGCUGAA
Q: B2 was tested. Which Kd (dADAR-dsRBD1 [3]) did it give?
A: The Kd was 0.27 ± 0.07 µM.

Q: What about the Kd (TRBP2-dsRBD1 [4]) of the same binder?
A: The Kd was 0.69 ± 0.13 µM.

B3: miR-16-1 (dsRNA)
RNA 1: UAGCAGCACGUAAAUAUUGGCG
RNA 2: CCAGUAUUAACUGUGCUGCUGAA
Q: B3 was tested. Which Kd (TRBP2-dsRBD1 [5]) did it give?
A: Its Kd is 0.89 ± 0.21 µM.

Q: What about the Kd (dADAR-dsRBD1 [6]) of the same binder?
A: The Kd was 0.27 ± 0.05 µM.

B4: miR-16-1-D (dsRNA)
RNA 1: UAGCAGCACGUAAAUAUUGGCG
RNA 2: CCAGUAUUUACGUGCUGCUGAA
Q: What does the source list for B4?
A: Kd (TRBP2-dsRBD1 [7]): 0.5 ± 0.04 µM; Kd (dADAR-dsRBD1 [8]): 0.43 ± 0.1 µM

B5: miR-16-1-M (dsRNA)
RNA 1: UAGCAGCACGUAAAUAUUGGCG
RNA 2: CCAGUAUUAACGUGCUGCUGAA
Q: Which results are given for B5?
A: Kd (TRBP2-dsRBD1 [9]): 2.12 ± 0.22 µM; Kd (dADAR-dsRBD1 [10]): 0.78 ± 0.24 µM

From doi:10.1101/862326
